Consider one substance from US20100050279.

In the data set the target is T1, FLPo (codon-optimized FLPe recombinase) (UniProt P03870).
T1 sequence: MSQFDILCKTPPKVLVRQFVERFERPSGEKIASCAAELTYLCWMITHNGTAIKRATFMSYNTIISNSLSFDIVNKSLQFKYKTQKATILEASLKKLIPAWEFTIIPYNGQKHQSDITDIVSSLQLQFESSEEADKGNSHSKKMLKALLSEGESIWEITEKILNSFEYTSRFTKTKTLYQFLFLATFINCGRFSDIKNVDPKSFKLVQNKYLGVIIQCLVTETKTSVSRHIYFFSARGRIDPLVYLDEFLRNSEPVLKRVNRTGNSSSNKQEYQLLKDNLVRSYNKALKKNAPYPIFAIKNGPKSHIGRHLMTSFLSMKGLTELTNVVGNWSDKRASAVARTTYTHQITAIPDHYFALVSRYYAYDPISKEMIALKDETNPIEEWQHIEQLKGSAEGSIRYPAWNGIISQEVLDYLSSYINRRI
Kind of data set: cell_activity.

Regarding “FRT (FLP recognition site) in ROSA26 PLAP reporter”, the activity (% of hygroR colonies recombined) (stable integration, 7 of 14 colonies) came to 50. The activity (transient, mouse FLP reporter ES cells, 10 ug circular plasmid, 5 days, value stated as nearly 75%, nearly 20-fold over FLPe) was found to be 75%.
